The assay addresses EGFR on cells (H322M) (human), P00533. Nature of the assay: cell-based or functional assay.

B1: humanized <EGFR>ICR62 (antibody, V domains shown)
VH: QVQLVQSGAEVKKPGSSVKVSCKASGFTFTDYKIHWVRQAPGQGLEWMGYFNPNSGYSTYAQKFQGRVTITADKSTSTAYMELSSLRSEDTAVYYCARLSPGGYYVMDAWGQGTTVTVSS
VL: DIQMTQSPSSLSASVGDRVTITCRASQGINNYLNWYQQKPGKAPKRLIYNTNNLQTGVPSRFSGSGSGTEFTLTISSLQPEDFATYYCLQHNSFPTFGQGTKLEIKRT
Molecule B1 yielded a reduction of cell growth, H322M spheroids, 7 days, 100 nM, Celltiter Glow of 77%.

Values taken from patent publication US20100256338A1.
